{"source": "paper PMC3302758", "about": "(Molecular Biology of the Cell, 2012)", "biological_target": "Cystic fibrosis transmembrane conductance regulator (CFTR), wild type, transiently expressed in HEK293 cells (UniProt P13569 1-1480)", "sequence (P13569 whole entry)": "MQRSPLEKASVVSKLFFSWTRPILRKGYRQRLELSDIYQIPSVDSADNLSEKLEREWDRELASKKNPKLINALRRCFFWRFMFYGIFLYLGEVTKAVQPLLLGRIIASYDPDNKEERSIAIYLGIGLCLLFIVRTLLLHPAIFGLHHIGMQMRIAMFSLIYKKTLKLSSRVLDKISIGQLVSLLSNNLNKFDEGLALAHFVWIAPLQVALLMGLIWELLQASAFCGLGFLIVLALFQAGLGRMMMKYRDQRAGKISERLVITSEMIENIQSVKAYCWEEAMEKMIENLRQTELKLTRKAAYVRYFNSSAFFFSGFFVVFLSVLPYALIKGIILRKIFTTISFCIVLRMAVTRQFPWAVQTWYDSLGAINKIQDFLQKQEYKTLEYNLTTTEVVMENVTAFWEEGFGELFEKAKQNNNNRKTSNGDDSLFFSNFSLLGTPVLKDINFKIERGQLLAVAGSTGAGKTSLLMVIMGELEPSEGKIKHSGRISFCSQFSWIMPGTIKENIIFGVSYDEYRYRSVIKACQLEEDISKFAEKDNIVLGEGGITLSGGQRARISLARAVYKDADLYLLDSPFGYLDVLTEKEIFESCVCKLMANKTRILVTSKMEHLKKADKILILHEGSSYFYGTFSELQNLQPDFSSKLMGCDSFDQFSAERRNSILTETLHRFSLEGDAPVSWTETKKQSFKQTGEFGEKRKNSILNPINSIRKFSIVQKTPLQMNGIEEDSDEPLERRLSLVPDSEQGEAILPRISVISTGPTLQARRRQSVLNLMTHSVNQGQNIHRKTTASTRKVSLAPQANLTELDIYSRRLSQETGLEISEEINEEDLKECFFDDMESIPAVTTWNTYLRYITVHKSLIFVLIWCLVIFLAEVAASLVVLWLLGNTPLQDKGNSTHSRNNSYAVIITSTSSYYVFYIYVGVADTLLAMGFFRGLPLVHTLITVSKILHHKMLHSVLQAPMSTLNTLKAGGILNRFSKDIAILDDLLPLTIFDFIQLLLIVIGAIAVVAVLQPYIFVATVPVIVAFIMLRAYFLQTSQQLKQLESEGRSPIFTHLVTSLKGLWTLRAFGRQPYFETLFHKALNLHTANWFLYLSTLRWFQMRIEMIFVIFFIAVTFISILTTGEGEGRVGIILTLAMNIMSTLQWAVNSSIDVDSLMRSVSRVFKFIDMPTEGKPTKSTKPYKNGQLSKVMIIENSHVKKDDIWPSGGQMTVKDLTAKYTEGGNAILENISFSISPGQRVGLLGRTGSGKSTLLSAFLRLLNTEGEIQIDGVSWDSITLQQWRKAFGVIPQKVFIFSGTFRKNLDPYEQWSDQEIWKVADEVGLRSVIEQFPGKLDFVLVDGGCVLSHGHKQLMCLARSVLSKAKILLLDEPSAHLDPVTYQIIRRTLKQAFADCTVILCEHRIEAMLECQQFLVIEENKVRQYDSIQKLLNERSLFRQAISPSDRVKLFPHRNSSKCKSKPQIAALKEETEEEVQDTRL", "assay": "co-IP"}
{"binder": "14-3-3ε, endogenous in HEK293 cells (natural protein, human (endogenous in HEK293), UniProt P62258 1-255, looked up) MDDREDLVYQAKLAEQAERYDEMVESMKKVAGMDVELTVEERNLLSVAYKNVIGARRASWRIISSIEQKEENKGGEDKLKMIREYRQMVETELKLICCDILDVLDKHLIPAANTGESKVFYYKMKGDYHRYLAEFATGNDRKEAAENSLVAYKAASDIAMTELPPTHPIRLGLALNFSVFYYEILNSPDRACRLAKAAFDDAIAELDTLSEESYKDSTLIMQLLRDNLTLWTSDMQGDGEEQNKEALQDVEDENQ", "values": [{"measurement": "fold increase of the co-precipitate with forskolin against basal", "result": 3.1, "unit": "fold"}]}
